From the supplement of paper PMC9112550, “Optimization of the antimicrobial peptide Bac7 by deep mutational scanning” (BMC Biology, 2022)

System: Escherichia coli TOP10
Assay: shrunken log2 fold change of peptide-encoding DNA abundance (4.5 h post-induction vs induction); higher = less antimicrobial activity (less host growth inhibition)
Conditions: time post-induction: 4.5 h; library: site-saturation at positions 5, 18, 19, 20
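Note: peptides expressed intracellularly from a pBAD plasmid library in pooled LB shake-flask culture, induced with 0.3% L-arabinose, DNA abundance read by NGS, three biological replicates, DESeq2 with apeglm shrinkage.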

How did the “shrunken log2 fold change” value turn out when RRIRPRPPRLPRPRPRPQESPRP was run?
The value was -0.0337.

For RRIRPRPPRLPRPRPRPQFTPRP, which “shrunken log2 fold change” value is on record?
Its value is -0.285.

RRIRPRPPRLPRPRPRPQGQPRP was tested. Which “shrunken log2 fold change” value did it give?
The value was 0.0372.

RRIRPRPPRLPRPRPRPQHEPRP was tested. Which “shrunken log2 fold change” value did it give?
Its value is -0.146.

With RRIRPRPPRLPRPRPRPQHGPRP as the sequence, how does the “shrunken log2 fold change” value read?
The value was -0.189.

With RRIRPRPPRLPRPRPRPQHMPRP as the sequence, how does the “shrunken log2 fold change” value read?
The value was -0.537.

With RRIRPRPPRLPRPRPRPQHVPRP as the sequence, how does the “shrunken log2 fold change” value read?
Its value is 0.00743.

RRIRPRPPRLPRPRPRPQHYPRP was tested. Which “shrunken log2 fold change” value did it give?
Its value is -0.675.

For RRIRPRPPRLPRPRPRPQIRPRP, which “shrunken log2 fold change” value is on record?
Its value is -0.207.

RRIRPRPPRLPRPRPRPQISPRP was tested. Which “shrunken log2 fold change” value did it give?
Its value is -0.221.

With RRIRPRPPRLPRPRPRPQKRPRP as the sequence, how does the “shrunken log2 fold change” value read?
Its value is 0.151.

Which “shrunken log2 fold change” value does the source give for RRIRPRPPRLPRPRPRPQLPPRP here?
The value was 0.0534.

RRIRPRPPRLPRPRPRPQMYPRP was tested. Which “shrunken log2 fold change” value did it give?
The value was -0.338.

For RRIRPRPPRLPRPRPRPQNFPRP, which “shrunken log2 fold change” value is on record?
The value was -0.0849.

With RRIRPRPPRLPRPRPRPQPWPRP as the sequence, how does the “shrunken log2 fold change” value read?
The value was 0.348.

How did the “shrunken log2 fold change” value turn out when RRIRPRPPRLPRPRPRPQQLPRP was run?
Its value is 0.0282.

For RRIRPRPPRLPRPRPRPQQPPRP, which “shrunken log2 fold change” value is on record?
Its value is 0.132.

RRIRPRPPRLPRPRPRPQQYPRP was tested. Which “shrunken log2 fold change” value did it give?
The value was -0.108.

Which “shrunken log2 fold change” value does the source give for RRIRPRPPRLPRPRPRPQREPRP here?
The value was -0.063.

RRIRPRPPRLPRPRPRPQRRPRP was tested. Which “shrunken log2 fold change” value did it give?
The value was -0.359.

Which “shrunken log2 fold change” value does the source give for RRIRPRPPRLPRPRPRPQSHPRP here?
Its value is -0.291.

Which “shrunken log2 fold change” value does the source give for RRIRPRPPRLPRPRPRPQTYPRP here?
The value was -0.256.

Which “shrunken log2 fold change” value does the source give for RRIRPRPPRLPRPRPRPQWIPRP here?
The value was 0.0662.

RRIRPRPPRLPRPRPRPQYFPRP was tested. Which “shrunken log2 fold change” value did it give?
Its value is -0.0988.

Which “shrunken log2 fold change” value does the source give for RRIRPRPPRLPRPRPRPRACPRP here?
The value was 0.456.

For RRIRPRPPRLPRPRPRPRCEPRP, which “shrunken log2 fold change” value is on record?
The value was 0.809.

For RRIRPRPPRLPRPRPRPRCTPRP, which “shrunken log2 fold change” value is on record?
The value was 0.753.

For RRIRPRPPRLPRPRPRPRDGPRP, which “shrunken log2 fold change” value is on record?
Its value is 0.694.

For RRIRPRPPRLPRPRPRPRDIPRP, which “shrunken log2 fold change” value is on record?
The value was -0.191.

With RRIRPRPPRLPRPRPRPRDNPRP as the sequence, how does the “shrunken log2 fold change” value read?
Its value is -0.104.

RRIRPRPPRLPRPRPRPRENPRP was tested. Which “shrunken log2 fold change” value did it give?
The value was 0.672.

RRIRPRPPRLPRPRPRPRFEPRP was tested. Which “shrunken log2 fold change” value did it give?
Its value is 0.0793.

With RRIRPRPPRLPRPRPRPRIPPRP as the sequence, how does the “shrunken log2 fold change” value read?
Its value is 0.243.

Which “shrunken log2 fold change” value does the source give for RRIRPRPPRLPRPRPRPRLMPRP here?
Its value is 0.337.

How did the “shrunken log2 fold change” value turn out when RRIRPRPPRLPRPRPRPRMLPRP was run?
The value was 0.00647.

RRIRPRPPRLPRPRPRPRMVPRP was tested. Which “shrunken log2 fold change” value did it give?
Its value is -0.263.

Which “shrunken log2 fold change” value does the source give for RRIRPRPPRLPRPRPRPRNAPRP here?
Its value is 0.39.

How did the “shrunken log2 fold change” value turn out when RRIRPRPPRLPRPRPRPRNIPRP was run?
The value was -0.222.

With RRIRPRPPRLPRPRPRPRPDPRP as the sequence, how does the “shrunken log2 fold change” value read?
Its value is 0.45.

Which “shrunken log2 fold change” value does the source give for RRIRPRPPRLPRPRPRPRPPPRP here?
Its value is 0.831.

With RRIRPRPPRLPRPRPRPRPSPRP as the sequence, how does the “shrunken log2 fold change” value read?
The value was 0.333.

How did the “shrunken log2 fold change” value turn out when RRIRPRPPRLPRPRPRPRQYPRP was run?
Its value is -0.257.

With RRIRPRPPRLPRPRPRPRRDPRP as the sequence, how does the “shrunken log2 fold change” value read?
Its value is 0.302.

With RRIRPRPPRLPRPRPRPRSEPRP as the sequence, how does the “shrunken log2 fold change” value read?
The value was 0.564.

Which “shrunken log2 fold change” value does the source give for RRIRPRPPRLPRPRPRPRSLPRP here?
Its value is 0.14.

With RRIRPRPPRLPRPRPRPRSYPRP as the sequence, how does the “shrunken log2 fold change” value read?
Its value is 0.199.

For RRIRPRPPRLPRPRPRPRTKPRP, which “shrunken log2 fold change” value is on record?
The value was 0.518.

Which “shrunken log2 fold change” value does the source give for RRIRPRPPRLPRPRPRPRTNPRP here?
The value was -0.0218.

Which “shrunken log2 fold change” value does the source give for RRIRPRPPRLPRPRPRPRTQPRP here?
The value was 0.223.

How did the “shrunken log2 fold change” value turn out when RRIRPRPPRLPRPRPRPRVFPRP was run?
The value was 0.607.

RRIRPRPPRLPRPRPRPRVRPRP was tested. Which “shrunken log2 fold change” value did it give?
Its value is 0.217.

Which “shrunken log2 fold change” value does the source give for RRIRPRPPRLPRPRPRPRVSPRP here?
Its value is 0.00758.

For RRIRPRPPRLPRPRPRPRWDPRP, which “shrunken log2 fold change” value is on record?
Its value is -0.0161.

How did the “shrunken log2 fold change” value turn out when RRIRPRPPRLPRPRPRPRWIPRP was run?
The value was 0.157.

For RRIRPRPPRLPRPRPRPRYPPRP, which “shrunken log2 fold change” value is on record?
The value was 0.202.

How did the “shrunken log2 fold change” value turn out when RRIRPRPPRLPRPRPRPSAAPRP was run?
The value was 0.487.

RRIRPRPPRLPRPRPRPSALPRP was tested. Which “shrunken log2 fold change” value did it give?
Its value is -0.00612.

RRIRPRPPRLPRPRPRPSDVPRP was tested. Which “shrunken log2 fold change” value did it give?
The value was -0.249.

How did the “shrunken log2 fold change” value turn out when RRIRPRPPRLPRPRPRPSEFPRP was run?
The value was -0.0966.

For RRIRPRPPRLPRPRPRPSEKPRP, which “shrunken log2 fold change” value is on record?
Its value is -0.0945.

How did the “shrunken log2 fold change” value turn out when RRIRPRPPRLPRPRPRPSEQPRP was run?
Its value is -0.233.

Which “shrunken log2 fold change” value does the source give for RRIRPRPPRLPRPRPRPSFFPRP here?
Its value is 0.19.

Which “shrunken log2 fold change” value does the source give for RRIRPRPPRLPRPRPRPSFIPRP here?
Its value is -0.601.

How did the “shrunken log2 fold change” value turn out when RRIRPRPPRLPRPRPRPSGEPRP was run?
Its value is 0.126.

RRIRPRPPRLPRPRPRPSITPRP was tested. Which “shrunken log2 fold change” value did it give?
Its value is -0.401.

With RRIRPRPPRLPRPRPRPSIVPRP as the sequence, how does the “shrunken log2 fold change” value read?
The value was -0.662.

How did the “shrunken log2 fold change” value turn out when RRIRPRPPRLPRPRPRPSIWPRP was run?
The value was -0.11.

For RRIRPRPPRLPRPRPRPSKGPRP, which “shrunken log2 fold change” value is on record?
The value was 0.0318.

For RRIRPRPPRLPRPRPRPSKHPRP, which “shrunken log2 fold change” value is on record?
The value was -0.441.

For RRIRPRPPRLPRPRPRPSKTPRP, which “shrunken log2 fold change” value is on record?
Its value is 0.0619.

With RRIRPRPPRLPRPRPRPSLKPRP as the sequence, how does the “shrunken log2 fold change” value read?
Its value is -0.25.

With RRIRPRPPRLPRPRPRPSLTPRP as the sequence, how does the “shrunken log2 fold change” value read?
Its value is -0.22.

For RRIRPRPPRLPRPRPRPSNHPRP, which “shrunken log2 fold change” value is on record?
Its value is -0.497.

With RRIRPRPPRLPRPRPRPSNLPRP as the sequence, how does the “shrunken log2 fold change” value read?
The value was -0.823.

RRIRPRPPRLPRPRPRPSNNPRP was tested. Which “shrunken log2 fold change” value did it give?
The value was -0.542.
